Experiment: label from the status in PepcDB records

Row | Sequence | protein production
1 | MNYFLMIILGVLGAESRFAIELTIDNSAYPYGTLIINMIGCFLLGFMYYFFVEAKKTINQLVAVVSTGFVGSFTTFSTFELEIFKMFQLDQYLKAISYFFVTMLSGLLFVFLGYCLSKLIIIKRKENK | failed
2 | MNYKLTLHPGSNPVEEFTSIPHGVTSLDLSLNNLYSISTVELIQAFANTPASVTSLNLSGNSLGFKNSDELVQILAAIPANVTSLNLSGNFLSYKSSDELVKTLAAIPFTITVLDLGWNDFSSKSSSEFKQAFSNLPASITSLNLRGNDLGIKSSDELIQILAAIPANVNSLNLRGNNLASKNCAELAKFLASIPASVTSLDLSANLLGLKSYAELAYIFSSIPNHVVSLNLCLNCLHGPSLENLKLLKDSLKHLQTVYLDYDIVKNMSKEQCKALGAAFPNIQKIILVDKNGKEIHPSHSIPISNLIRELSGKADVPSLEHHHHHH | not failed
3 | MNYPAENFTKRFLSSLAQVMLQSNTVTGFLFLVGIGLNSPTMLLGCILAILSSLAVAKLFQYDSNCVTKGFYGFNAALVGIAVFSLLPLSFISLVLVLLGGAFSALLMHVMITKIPSIPALTTPFILSTWTIVLIIDSVGLADPMSGSFTGSISPTLIDSLHGVLRGVGQVMLQDSWLSGAVFCCALLFSSYKTAVWAILGSLIGLLVATTFGFSQEKAMMGLYGFNGCLVAIALVDRYPNKYWLIILAILFSVLFTRVFEMIAIPAFTAPFVMTTWLMIGIVKLKADFD | failed
4 | MNYPKAILLSLALLAMHSLNAEVVTYPAGVGVKTLNDFSVEVRQGSGPWLPVDVYPVKVDRVDEKGHNVEVASIAYFDFDGMVDVRVISNKERVNSVRVRPLSYKITPDCVGDTVTFSLSRPRNLSVEVNGDIFHNLHLFANPIDKFRPSDKEIQRALKKKKGSNLIYFGPGVHNLPNDTLFVPSGTTVYIDGGARVYGNIFTEGAHDVNIFGRGEVHPDGRGAGVWVRRSKNVRIDGIVVSQLPIGQCDSVELTNVKSISYYGWGDGMDVFSSSNVILDGVFCRNSDDCAAVYASTQGFKGGSNNVLVKNATLWADVAHPINIGGHGDPNGMDTVQNVTFRNIDILDQAEKQIDYQGCLAINPGDNTLVRNITFENIRIEDFRNGQLVNFRISFNPKYCVSTGRGIQNVLVKDVTYNGSGENLSIIAGYDENHKISGIRFVNLVVNGRKITDDMPGKPKWYKTGDMAGIFVGEHVENLSFE | failed
5 | MNYQLFKHSDENASYVVFSSGLGGHGSFWQAQLDVFRQYFHVLIYDQEGCHASSELLADGYSFEHLALQVKQLLQQLNIVRFHFIGHALGGFIGIELAHRYASETCQLLSLTLINAWQQLDPHTLRCFTTRIALLQHAGTAAYLHAQALFLYPPLWISEHTALLEQQEAKMQSDFPPHANVLKRLNALMQYQVNTARIDTLKQLPVCLIANQDDMLVPYVQSLNLWKKLPDAQLKLLPYGGHASTVTEARQVNQLMLDFLK | failed
6 | MPAIGSAPDGSRVSFMPKAWLLLALLLLLSLPARAEEWPALQWSQGTPASGPALQALEEYAFVPRDDESRQGIRTDALLVIRDGRLLYERYAGATGPQTPHLAWSASKSLLAVLLGVAFGEGRFQLQDPAAKFYPPLEAHPDITLADLLHWASGLDWQEDYEYAPLNSSVVAMLYTRGHRDMAAFTVQQAASGPPGQVFRYSSGDSNLLAASLRGMVGEGQYADYPWRALFEPLGITQAVWERDAAGTFVASSYLYLTARDLARIGLLMQRDGRWRDRQLLPKAWVEFCRTPFRGYRANQDVAVAGGHWWLNREVDGAPRPWPDAPADTYAALGHWGQALYVLPAQRLVIVRYGDDRDGSYQHNELLKRVLAAFATPEQP | failed
7 | MPAKVLINGYGSIGKRVADAVSMQDDMEVIGVTKTKPDFEARLAVEKGYKLFVAIPDNERVKLFEDAGIPVEGTILDIIEDADIVVDGAPKKIGKQNLENIYKPHKVKAILQGGEKAKDVEDNFNALWSYNRCYGKDYVRVVSCNTTGLCRILYAINSIADIKKARIVLVRRAADPNDDKTGPVNAITPNPVTVPSHHGPDVVSVVPEFEGKILTSAVIVPTTLMHMHTLMVEVDGDVSRDDILEAIKKTPRIITVRAEDGFSSTAKIIEYGRDLGRLRYDINELVVWEESINVLENEIFLMQAVHQESIVIPENIDCIRAMLQMEEDNFKSIEKTNKAMGIQ | not failed
8 | MPATPSLKVVHELPACTLCAGPLEDAVTVPCGHTFCRLCLPALSQMGAQSSGKILLCPLCQEEEQAETPMAPVPLGPLGETYCEEHGEKIYFFCENDAEFLCTSECRTTDGFGCA | failed
9 | MPCRGLHAIPAGPPEFPELATIYVVCGDKLNVMIDAGVTNSIMDSSFLEKLDLVILTHIHIDHIGLLPEILDRYKNAKVMIKNGFKKFLTTEDGVRRLNESSEKVLGDLYYIYGEFTKIDPDKVVEVEGGEMIDIGDGKTLKIIYTPGHAKHHISVVSDDILFTGDSGGAYFNGAVIPTTPPPLDYDNYVNSLRLQISLKPKVVGLAHGGLVSPNILEQHLDQMLGKESFDIGEIDIGGIGGEILRKQVEVNLRGLNEALGRNKKTLLEHHHHHH | failed
10 | MPDLTRRNFSNLLSFPMPDTRPAKAGGQPRPFFRLGVVRFGLATALALFWVGAFASTATGQRTSRTPDQLENVGVDQKLGATIPKDLSFQNEQGEPVRLSQYFDGSTPVMLTLNYHRCPQLCRIQLQKFTKSLSGMSWTAGDKFKVLTVDISPYEGPKMARKAQERYATFLDRPEETVDGWHFLTGNQAAIETLTDSVGFRYQPLPEKEKQFAHPTTIIFLSGDGTITRYFTTLDPAPGDLRTALVEASDGTVGNVVDKAFLACARFNPDSNSYSASAFKLMQYGSVLTVIVMGAALFVFWRRENEQLETAHEEGLNAMVDEQA | failed
11 | MPDNEVDLLFAQLSPEDLIEWSDYLPESFTDRALAQMGERQRQRFELYDQYSENEIGRYTDHQMLVLSDKATVAQAQRFFRRIELDCNDNLFIVDEADKYLGTVRRYDIFKHEPHEPLISLLSEDSRALTANTTLLDAAEAIEHSREIELPVIDDAGELIGRVTLRAATALVREHYEAQLMATAGMDESDDLFAPILKGAQRRAVWLGINLLTAFLASATIGLFENVLSQVVALAVLMPIVASMGGIAGSQSLTLMIRGMAMGQISAGNLFSLMKNELGIGLVNGTLWAIVIGLVAGWWFADSIIGIVIGCAILINMAVAALAGVFVPMIL | failed
12 | MPDWVTGTWLLALDWAIRLAALLWIPARTTPGAARSWLLLIGFVPVVGLPLYLLFGHPWLSRLRVERQATASQVIREQQLPLHALRWMPQADTSSAEVVPLIEREGDFMPTLGNAVELLDDYAQSLQALIAAIDAADKRVHLLYYLMFDDAVGEAVVVALERASARGVRCRVLLDAVGAKRGLRRYRKRLQDGGVQVLAVLPGGLRWRRSGRMDLRNHRKIAVLDNRVAFVGSQNLAEAGFIDGVPNRELVARVRGPVVNHLEAVFASDWFTETGERLDVWPDAPVCEANIATQLLPSGPAYPFENARDAINAVIHLARRKVVLVTPYFVPDEALLSALRIAPVSGVDVQLILSEHNNQRLAAWAQEAYFEELLRCGVKIALYRPHFLHAKHLSMDEDIALVGSINLDIRSFALNAEIGMLCYDTGVVQRLREIEQDYLANARQLTLEQWRRRPAWRRSREGIARLADALM | failed
13 | MPDYGHDLLFGAVLTPDAQNPRAVLESARLADRSGLDLVSVPDHPYRPDFLDAWTLLSVIAAHTERVRVFPNVANLPLRPPAGLARAAAALDVLSGGRVELGLGAGGYWDAIAGEGQPRRTPGEAVEALAEAIDVIRALWASGGAGATVDGTHYRLDGARPGPPAAHPLGIWVGALGPRMLRLIGRTADGWLPSATRVPPAELAVGQRIVDEAAIAAGRDPRAVRRLYNLP | failed
14 | MPEAGLAQLVPLTAVALLAGVVDAIAGGGGLLTLPALLWTGLPPHLALGTNKGQSVFGSFAALVRFSRAGMVDGRRARLTFPLGLAGSLAGAGLVLLVPPATLRPVVLALLAFAALFVGLRRGPPARPDGGPRPAAPVVAGAIALAIGAYDGFFGPGTGTFLIVAFVALLGDGLAHASAGAKVVNFASNLAAVTLFSIKGVVVWRIAVPMAVAQLAGGWIGAHLAVRRGDALVRRTAVLVTLALAVKLAWDMRS | failed
15 | MPERIIREDVKIGDGMMIDSDSQDDCVTKAVRTVEQKLTTEEHEIVMVYDYVSGSSGSSSTPSFTLTPYSPISYESDQEDYEDPPISPYISEAVVHSPDSTFALLWEGTSPILHFAADMRADAIPSVGDGTTSGIHIPYCFIYGEDGRYPQDCRF | failed
16 | MPEVEDMPSIALHSVMASPNAEYVRWKAHGDFISQLNYYDSMKAVISSSNHEPTALVIGFTVGATDVKEKLNEIRNVGKNVMMGSSSASLALAKRQAECNRTVFRVHKGVKAFSFCRKKNLLATGGLDRIVRVWNPYLPGKPTGVLRGHMAPVMYVHVASEENKVFSVSADNTVKIWDLETHSCCCTVSSKASGIKGELTACLYLPGPRALCVATGTLALFHLKAGSVPEPHLLRSHQEPVVCCRYNPAFRQVVSCCEASVVKVWDLETGRWVSEFIGNAGITCLAFDSSGRRLVTGGRDGDLKIWSYNNGHCLHTLQHDENQNEVCDCTYMEVNRNGCVIAVGWDRRINVYFDIPRDFHHFRKPQPHWQDDLNHGHKEDILCVAQCPPFLLATSSYDGEIIVWNVISGHMYCKLNTPSPMDPREGPDRSVSRLTFLKTRLTKLDSTAASLISNGPGGSVSFWKLFSGSGLIANFTPAREKAQVSGIVVTSGDTVAYLADQHGFIYVYDIQEYGLWGAELQPPNSTHSWEVESQKHSFLKTFDVSEGAGKGLSSSLDCTVRLCSKDGAYIGTFGQNRPWDVYTPDSWGHPRVPLEILTDPQSMPTHLVLETDVPAGCSGGRQEQGHMTEEKVLFETEKTHNPPSPEGPVVEVEVKADKSQWSAFSHDRLLLSSKTLMQDKRLLSARRKPCWKVPELKWPSIYQALQCHELDFVSALREKPDLSVTGFDLLPDYRFPRGPTEYRQCSAELLFRSLPHAAHISSVPQAPAKLWGHKQN | failed
17 | MPEWAVILSICGLYLVLVLGLGVWSGRTVSASVDGYVAGDRTLGVIVLYFVLGASVFSSFAFLGAPGWAYSRGAAAFYIIAYGTVGMVPFYFLGPRARQVGEAFGFVTQAEMLAHRYDSRTLSVVLAALSVVAFVPYLTLQMKGAGLLLSTISDGVVPQWLGALAAYGVVLVYVFASGMMAIGWTNTVQGLFMMAVAWFLGLYLPETLHGGIQPMFEAIAASDKAAMLDVPGLAADGSPWSWAGYSSAVIVSAVGFSMWPHLFMRAFTAKSDRTLKLTVVLYPTFQLFLVPILLIGFAGVLAFPGVAPPDTIVPHLLTQIELSPVLVGLVCAGALAASMSSGDAILHAAASIGLRDGIKPLLAAPMTDTRQRQWIRGLVVATSATAYYFAVFSEVGIVALLLGAYGGVAQIFPLVFAAFYWPRATGAGALAGLLAGIGVNTLFLVAPHLRPFPLHEGVYGLAANIAVFLTVSLLTPPHDRDRLRAYTHSDRLAADETVAS | failed
18 | MPFATNGAPYYEQLVMQIKQQIVQEVLRPGDQLPSIRAMASEMHLNPNTVSKAYQILEHQRAVYTVKGRGTFVSESSQIATDSNAVDDLQTRLQSLLTEAQFLGISAQQVQAWVTTAYQKGESRDEYPS | failed
19 | MPFHGDAQENTWPNSRASPMSLASKLPRFRWLLPAFVVLVGVVLTIVMHWDDRAGLWWKESQASQQQRDESIWLPGYRVVIDAKPLQGLEEEETSDLAYNPATRTLFTVTGKRPLLVELSLTGDVLRTIPLLGLSNPEGVAVLENGNVAVTDERRNTLTIFHVDPQTAELSTKSLAEFPLGNIGKKNKGFEGIAWDPRQQRLLLSKERDPMTLFSWKSDGGPSLSGAMTALPSDDLYMRNVSALSVDPRTGHTLVLSAESHLLLELDEKGEPVSFISLLGGFNGLDSKIPRAEGVAIDDEGTIYMVSEPNLFYVFRKKSGERLATSDADLEHHHHHH | failed
20 | MPFRTPNIANMTDKKFLPQLDENLPTDVFFHYFFLEAKTETLSHSHPWGQLHLIKQGRLEMEVDKQKMFCPANYAIWTPAHLLHRAFNHNDVEYCAINIEFELSQKLPTSACMFPLTPLLRAIVDDLVERQTTEVLSTEDKYLSHVLIERLSKTNPIENYLPFTDDKLLAPILMQLQENPADDSSLEIWAKRVFSTERTLARRFQKELKMSFNDWRQRAKLAKAMVLLKDAISINEIAYQLGYSQGSSFIKMFRKHTGVTPEQFRKEQQGK | failed

— a protein production outcome set (Wang et al. 2014)
